Laboratory results: the DeepSol protein solubility set

Test: soluble on expression in E. coli; label from the status in PepcDB or PDB records
With “MKRIPIKELIVEHPGKVLILDGGQGTELENRGININSPVWSAAPFTSESFWEPSSQERKVVEEMYRDFMIAGANILMTITYQANFQSISENTSIKTLAAYKRFLDKIVSFTREFIGEERYLIGSIGPWAAHVSCEYTGDYGPHPENIDYYGFFKPQLENFNQNRDIDLIGFETIPNFHELKAILSWDEDIISKPFYIGLSVDDNSLLRDGTTLEEISVHIKGLGNKINKNLLLMGVNCVSFNQSALILKMLHEHLPGMPLLVYPNSGEIYNPKEKTWHRPTNKLDDWETTVKKFVDNGARIIGGCCRTSPKDIAEIASAVDKYS” the “soluble on expression in E. coli” value was “soluble”. For “MITCLPLLAGEGARRKGDIGMRNKNKRLAQYATELRRNMTDAEYALWYHLRNKLFCGIRFNRQVIIGHYIVDFCSRKLKLVIELDGIQHVEQEQYDLERTKFLTAQGYKVIRFWNDEVLKNIDNVLEAIYVEIEHLSPPHFGSSPHKWVEPRLEVLK”, the “soluble on expression in E. coli” value was “not soluble”. With “LLEQESLPATGELYEHAACGLLVTLPNGTIERANLTFCRWLGLEREAVIGRRFQDLLNLAGKVFLQTHWAPLLQTQGSIAEVKVELIHADGRSVPMMLNAIRREYPSGFLHEVAVFLAEE” the “soluble on expression in E. coli” value was “not soluble”. For “MFILHRSMLPCGANQMDLIQENGQPRYGRFSQLPTAIGLDRYIYKSPYGKIEKGWRKKLKYKKFKFCSIQHQHYSIGLAIADIGWAGHGFFYVYDHAKHQVQEWNAIHAFARKTCVDEQPLFNQSYFYKSPFELDIQHANGVRYLRVTKYGEILLSARIFCAGTEPLSLCSPNGINGWTYTQKKTTLGVEGYFTTKQGEMIEFNETSLASLDDTCGFLRPETAWFWLSSSFWTDHGDRIGINLASGVNESFGNENCIWINGVLHSIADVLFERQDKNHWVIRSLDHKLELHVETGWRRYESINLRMVGSQFSQWQAKLTGKILLDENKTVVLNQEYALLEQHYAKW”, the “soluble on expression in E. coli” value was “not soluble”. For “PSEHLEHLFQYIVNDDKTYMKKLVSGHGIVDPTNPYEEFKLTKLQAAIQRKIGYTFDPKSERLLPPTLTELEKGNAVLAHHLIQSFSPEDDLTPEKIHEIGYNTVMELTGGEYEFVIATHVDKEHLHNHIIFSSTNLKTGKAFRWQKGTKKVFEQISDKIAAKEGAKIIEKSPKQTHTKYTKWQTESIYKQKIKSRLDFLLEQSSSINDFLEKAEALNLSADFSNKWTTYRLLDEPQIKNTRSRSLSKSDPTRYNYEKIIERLKENKNVL”, the “soluble on expression in E. coli” value was “not soluble”. In the case of “MGSDKIHHHHHHMHSLQQLKSQLLSYHAGILGEEYVKKSAVFIPLVEKDDGVHVLFEVRAHTLKQQPGEICFPGGRIDPEDASPEEAAIRETSEELGIPSSVIAPITSLDVLVTPFRGIIYPVIGSIPHKNDYPLNQAEVDHVFTVPIDHFISHPPEQYRINVHFEPGAGFPIERIANQSAYQKSTRQITESFYYYQSYVIWGLTAKILRHVITILKPS”, the “soluble on expression in E. coli” value is reported as “not soluble”. With “MLKLRFPLPVFRNAREIANGRNARMALKGLVANRAALIISPSFGSSQYFEQVVRLINAQSVRVIERSWQGEPSVEELSGVIGELEDFKPDYILALGGGSIIDGAKLAWLFYECPTLESELLYRPFALPSLRGRAKFAAIPTTVGAGSEVSSAAVMLDSVTNSKKAVVTHDFLPDLVILDPDLVSEVPPKVLKTTVADALSHAIEGYVSLIDNPLMNTFAEQAVSIIYRYRHQFSNDNWSSEMLSELQQAAMFAGWVQNHCIVGLSHAIAHQLGTFNIGHGLANGLLMPAVINFNYREHTAATKYEQLIYKSGLPNKEALLELFEVLVGEQKTDMHFSEQQLTTIAENALLDPAAKSNPVRFTENDVKEIVKQCL” the “soluble on expression in E. coli” value was “not soluble”. With “MSTRTEAVKAYLLDLQDRICTALEQEDGNAHFVEDAWTRPAGGGGRTRVVENGAVIEKGGVNFSHVFGSNLPPSASAHRPELAGRGFEALGVSLVIHPHSPHVPTSHANVRFFIAEKEGEEPVWWFGGGFDLTPYYGVEEDCVHWHRVAERACAPFGDDVYPRYKAWCDSYFHLKHRDEPRGIGGLFFDDVNQWDFDTSFAFIRAIGDAFINAYLPIVRRRKAAAYTVQQREFQEFRRGRYVEFNLVYDRGTLFGLQSGGRTESILMSLPPQVRWGYDWKAAPGSEEARLTDYFLTDRDWLADNAAALEHHHHHH” the “soluble on expression in E. coli” value was “not soluble”. In the case of “MAHHHHHHMFMCRVHARARYLYILQNGSVEEMTALLTKLRAAVPSERLIIEHRPQNIGYAAAVNEGYRVALQKPHAEVPFIGVFNCDVYFERRYFGRYIPVVYKMLAPDAARIRALEEVVEQEERAARAAGRQTLRASVATTPGLSISMLLPDRIRYSSFAEQQDEFKGHVGMFYYETKSMCAFLVSRLALLVGGFLDENFYPAYFEDYDWQFRLANLGFKTFTGSSAQFGGFFHRMGGNIRVINKGPAGKSISYDMAAIRVERMLNAKPGIDYGETKWAWHREALVAMSATPFPQLGFIVPLDVWVLDAARHQLIIDIGTGRRPSVEMSNTYNVSLLSSLRRFALADGKDFWGSGIITTEPDWRK”, the “soluble on expression in E. coli” value is reported as “not soluble”. In the case of “MSLRLTKGSVKHQAKTEAELKTVKTQLDTQKAQIEKHFAESAELFKTLINDYQKLYRHYATSSNNLLGEKDQKGLFTQQLITATDKSQNEQPRDYSEGASGLFKENKEEEGHHHHHH”, the “soluble on expression in E. coli” value is reported as “soluble”. With “MSLGGDRFYDLISAVHKSIRGSAPDAALYWYARIITAGGDPLYVARRLLAIASEDIGNADPRAMQVALSAWDCFTRVGAAEGERAIAQAIVYLAVAPKSNAVYQAFNAAKALAKQAPDYDVPRHLTNAPTQLLKELGNHAEYRYAHDEPNAYAAGENYFPEPLKDTRFYFPGARGMEIKIKEKLDWLRNLDQQSENIREGHHHHHH” the “soluble on expression in E. coli” value was “soluble”. With “SASHIVGYPRMGPKRELKFALESFWDGKSSAEDLEKVATDLRASIWKQMADAGIKYIPSNTFSYYDQVLDTTAMLGAVPGRYSWTGGEIGFSTYFSMARGNATVPAMEMTKWFDTNYHFIVPELGPNTKFSYSSHKAVNEYKEAKALGVDTVPVLVGPVSYLLLSKPAKGVEKSFALLSLLSSILPVYKEVIAELKAAGATWIQFDEPTLVLDLDSHQLAAFSAAYTELESALSGLNVLIETYFADIPAESYKTLTSLNSVTAYGFDLIRGSKTLDLVKSAGFPSGKYLFAGVVDGRNIWADDLAASLTTLESLEAIVGKDKLVVSTSCSLMHTAVDLVNETKLDSEIKSWLAFAAQKVVEVNALAKALAGQKDEAYFAANTAAQASRRSSPRVTNEEVQKAAAALRGSDHRRATNVSARLDAQQKKLNLPVLPTTTIGSFPQTVELRRVRREYKAKKISEDEYVSAIKEEISKVVKIQEELDIDVLVHGEPERNDMVEYFGEQLSGFAFTANGWVQSYGSRCVKPPIIYGDVSRPNAMTVFWSKMAQSMTSRPMKGMLTGPVTILNWSFVRNDQPRFETCYQIALAIKKEVEDLEAGGIQVIQIDEAALREGLPLRKAEHAFYLDWAVHSFRITNCGVQDTTQIHTHMCYSNFNDIIHSIINMDADVITIENSRSDEKLLSVFREGVKYGAGIGPGVYDIHSPRIPSTEEIADRINKMLAVLDTNILWVNPDCGLKTRKYTEVKPALTNMVLAAKLIRTQLASAK” the “soluble on expression in E. coli” value was “soluble”. For “TPTVDHVLLNIALNLSSNRSHEQQYQNLIDGVAQVFPCDASCLFIFDEDGFLTPVAVKGLSSSVLGRRYFPKAHPRLDAIIHSREPVRFDADCSLPDPFDGTLLTEDQCIDVHDCMGFSLYVEGQLVGALTMDALTVGAFDDIDPVAIETFAALTAATLRNIAQLKALKAQNQKQKSVTQTLIQQARSQHG”, the “soluble on expression in E. coli” value was “not soluble”. For “SLDITLVFPHQLFADHPAIQAGRTVALIEDPLLFGTDPQWPLRMHHQRRLLHRASMTVYAEQLRGRGFNVIHQRHDAAPDTQGHLQLLHSAGYRHVHLVDLVDHWLERRLNAFAESVALRVSVLPTPMLLTPADVLEKHFGTGKKPLMAKFYEMQRTRLGVLMDAEGRPVGGRWSFDADNRKKLPKDISVPPIPVATPSTVVNTSRQQLAQENLPGVGKLDGFYYP”, the “soluble on expression in E. coli” value was “soluble”. In the case of “GMEPLKVEKFATANRGNGLRAVTPLRPGELLFRSDPLAYTVCKGSRGVVCDRCLLGKEKLMRCSQCRVAKYCSAKCQKKAWPDHKRECKCLKSCKPRYPPDSVRLLGRVVFKLMDGAPSESEKLYSFYDLESNINKLTEDRKEGLRQLVMTFQHFMREEIQDASQLPPAFDLFEAFAKVICNSFTICNAEMQEVGVGLYPSISLLNHSCDPNCSIVFNGPHLLLRAVRDIEVGEELTICYLDMLMTSEERRKQLRDQYCFECDCFRCQTQDKDADMLTGDEQVWKEVQESLKKIEELKAHWKWEQVLAMCQAIISSNSERLPDINIYQLKVLDCAMDACINLGLLEEALFYGTRTMEPYRIFFPGSHPVRGVQVMKVGKLQLHQGMFPQAMKNLRLAFDIMRVTHGREHSLIEDLILLLEECDANIRAS”, the “soluble on expression in E. coli” value is reported as “soluble”. In the case of “MQEILIPLKEKNYKVFLGELPEIKLKQKALIISDSIVAGLHLPYLLERLKALEVRVCVIESGEKYKNFHSLERILNNAFEMQLNRHSLMIALGGGVISDMVGFASSIYFRGIDFINIPTTLLAQVDASVGGKTGINTPYGKNLIGSFHQPKAVYMDLAFLKTLEKREFQAGVAEIIKMAVCFDKNLVERLETKDLKDCLEEVIFQSVNIKAQVVVQDEKEQNIRAGLNYGHTFGHAIEKETDYERFLHGEAIAIGMRMANDLALSLGMLTLKEYERIENLLKKFDLIFHYKILDLQKFYERLFLDKKSENKTIKFILPKGVGAFEVASHIPKETIIKVLEKWH”, the “soluble on expression in E. coli” value is reported as “soluble”. For “MSESCNSLTVVFTDSPKIDDHLFAKAIRWADQNPDDTIFWARRKALERIPEIDVEFSMKAGALRRIRFGYSSKKLLQGCIDIALKASIGSEVAAIFCSMSIPQDCPELGCLLAALANFCNVDDGRAVVVIDLRDDNDDEKQEGVEESDPFENANFLEEEIVENPKELSNEPRETQTQEEFLEKLKRVASIYTKNVLLFDGNEEKFSNCF”, the “soluble on expression in E. coli” value was “not soluble”. With “MQRMNFSSLIETFAVDFQLVLPSVEGAGKYIHGEWFPTNEEPKTVSGAIIPYDNRTIYQSGGTLTSSDRQLAYVGSIPLGSKIIDMGKEYKVESEEPYAEHYADVNLYRLKAVTNNAAN” the “soluble on expression in E. coli” value was “not soluble”. In the case of “MSTPTPKVGFVSLGCPKALVDSERILTQLRMEGYEVVPTYEDADVVVVNTCGFIDSAKAESLEVIGEAIAENGKVIVTGCMGVEEHAIRDVHPSVLAVTGPQQYEQVVTAVHEVVPPKTEHNPLVDLVPPQGVKLTPRHYAYLKISEGCNHSCSFCIIPSMRGKLVSRPVGDVLSEAERLVKAGVKELLVISQDTSAYGVDLKYKTDFWNGQPVKTRMKELCEALSSMGVWVRLHYVYPYPNVDDVIPLMAAGKLLPYLDIPFQHASPKVLKAMKRPAFEDKTLARIKQWREICPELTIRSTFIVGFPGETEEDFQYLLDWLTEAQLDRVGCFQYSPVEGAPANELGLEPVPDEVKQDRWERFMAHQQAISAARLQLKVGKEIEVLIDEVDEQGAVGRSWADAPEIDGNVFVDSDELKPGDKVRVRITDADEYDLWAELVLEHHHHHH”, the “soluble on expression in E. coli” value is reported as “soluble”. In the case of “MGSDKIHHHHHHMIVEKRRFPSPSQHVRLYTICYLSNGLRVKGLLAEPAEPGQYDGFLYLRGGIKSVGMVRPGRIIQFASQGFVVFAPFYRGNQGGEGNEDFAGEDREDAFSAFRLLQQHPNVKKDRIHIFGFSRGGIMGMLTAIEMGGQAASFVSWGGVSDMILTYEERQDLRRMMKRVIGGTPKKVPEEYQWRTPFDQVNKIQAPVLLIHGEKDQNVSIQHSYLLEEKLKQLHKPVETWYYSTFTHYFPPKENRRIVRQLTQWMKNR”, the “soluble on expression in E. coli” value is reported as “not soluble”. With “MSTRNSRSELEKTAVQLFRKLGTRTVLFHQAAAQALGLFPTDLKSADILNEAGPMTAGELGKKTGLSTGSVTALVDRLEKAGVCGSWKRTPNDRRRVVIVPLTASKKHIKDLFRPLSESTMDLCREYTEEELELIFSFVGKAADIMEEELERLKQ” the “soluble on expression in E. coli” value was “not soluble”.
